According to article doi:10.1101/2023.12.05.570191 (bioRxiv, 2023):

Biological target: the molecule itself
Assay: FRET or BRET

B1: Cy5-labelled metallated Zur (Zur^Cy5, Cy5 at C113) (natural protein, E. coli)
chain: MEKTTTQELLAQAEKISAQRNVRLTPQRLEVLRLMSLQDGAISAYDLLDLLREAEPQAKPPTVYRALDFLLEQGFVHKVESTNSYVLCHLFDQPTHTSAMFICDRCGAVKEECAEGVEDIMHTLAAKMGFALRHNVIEAHGLCAACVEVEASRHPEQSQHDHSVQVKKKPR
modifications: Cy5 (maleimide chemistry) at C113 of one monomer of the dimer
binding result: binds
